T1: Scribble PDZ3 K1040A (human, UniProt Q14160 1002-1092, K1040A)
T1 sequence: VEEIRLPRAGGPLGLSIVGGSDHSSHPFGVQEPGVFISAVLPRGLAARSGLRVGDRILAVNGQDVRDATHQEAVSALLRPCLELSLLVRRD

T2: Human Scribble PDZ3 domain (human, UniProt Q14160 1002-1092)
T2 sequence: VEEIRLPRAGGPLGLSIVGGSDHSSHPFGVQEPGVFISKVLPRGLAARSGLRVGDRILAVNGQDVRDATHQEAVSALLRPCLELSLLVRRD


Key:
Assay in all cases: ITC
[1] = molecular target: Human Scribble PDZ3 domain (human) (UniProt Q14160)
[2] = molecular target: Human Scribble PDZ1 domain (human) (UniProt Q14160)
Sequence of Human Scribble PDZ1 domain (human) (Q14160 700-816): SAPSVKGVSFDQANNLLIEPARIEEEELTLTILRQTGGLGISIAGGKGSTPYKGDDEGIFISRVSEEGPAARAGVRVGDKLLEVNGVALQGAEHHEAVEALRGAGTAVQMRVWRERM

Scribble PDZ1 R762A = Scribble PDZ1 R762A (human, UniProt Q14160 700-816, R762A)
Sequence of Scribble PDZ1 R762A (Q14160 700-816 R762A): as the sequence (Q14160 700-816) above, with R63A counted along it

Scribble PDZ3 K1040A = molecular target: T1, Scribble PDZ3 K1040A
[3] = molecular target: T2, Human Scribble PDZ3 domain
[4] = molecular target: Human Scribble PDZ1 domain (human, UniProt Q14160 700-816)
Sequence of Human Scribble PDZ1 domain (Q14160 700-816): as the sequence (Q14160 700-816) above

Row | Kd [1] [µM] | Kd [2] [µM] | Kd (Scribble PDZ1 R762A) [µM] | Kd (Scribble PDZ3 K1040A) [µM] | Kd [3] [µM] | Kd [4] [µM] | Molecule
1 | 17.1 | 57 |  |  |  |  | PTHR PBM peptide, 4-mer
2 |  |  | 39.9 | 23.5 | 13.4 | 31.7 | QEEWETVM [PTHR PBM peptide, 8-mer]
3 |  |  |  |  | 19.2 | 11.5 | DEEASGPERPPALLQEEWETVM [PTHR PBM peptide, 22-mer]
